The results in this text go back to PMC3989342.

The target in the experiment is F-actin (endogenous, detected with anti-beta-actin antibodies) (rat (endogenous in hippocampal neurons)) (UniProt P60711). Put plainly: FRET or BRET; antibody-based acceptor-photobleaching FRET in fixed rat hippocampal neurons, single dendritic spine heads; anti-cofilin AE774 with Alexa 488 secondary (donor), anti-beta-actin AC15 with Alexa 555 secondary (acceptor); F-actin fixed, G-actin mostly extracted; control neurons, 2 min NMDA (nLTD), chronophin (CIN) overexpression.

In the case of “cofilin (endogenous cofilin/ADF of rat hippocampal neurons) (from UniProt P45592 1-166) (natural protein)”, the ratio of FRET in the presence versus the absence of nLTD, CIN-expressing neurons stood at 51%.
